Assay results published in patent US9359418B2, “Inhibitors of the T cell-specific alternative p38 activation pathway and methods of use” (The United States of America, as represented by the …, priority 2012, dated 2016).
No end group written: not given here.

Target: recombinant p38α (Homo sapiens, UniProt Q16539)
Assay: GST pull-down of recombinant p38α by truncated Gadd45α portions
Assay type: binding
Details: Gadd45α portions fused to GST, in vitro
Text: This example describes a Gadd45α 71-85 polypeptide fused to a cell-penetrating peptide (11R) and its ability to block the T cell-specific alternative p38 activation pathway. The minimal region of Gadd45α capable of binding to p38 was identified by fusing various truncated portions of Gadd45α to GST and using the product to pull down recombinant p38α in vitro.

Sequence of recombinant p38α (Q16539 whole entry, the tested form may be a part): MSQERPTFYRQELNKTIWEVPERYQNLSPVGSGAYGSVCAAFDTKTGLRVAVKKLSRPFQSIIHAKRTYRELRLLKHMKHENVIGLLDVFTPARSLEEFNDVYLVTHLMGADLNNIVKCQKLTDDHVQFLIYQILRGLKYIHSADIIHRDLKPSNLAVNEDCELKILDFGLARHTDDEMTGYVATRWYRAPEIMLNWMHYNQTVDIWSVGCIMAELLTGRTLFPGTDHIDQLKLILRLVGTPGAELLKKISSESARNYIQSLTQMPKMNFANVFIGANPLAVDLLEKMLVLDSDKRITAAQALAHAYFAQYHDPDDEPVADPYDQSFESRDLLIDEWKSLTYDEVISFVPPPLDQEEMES

71-85 fragment: residues 71-85 of Gadd45α fused to GST, used to pull down recombinant p38α (LQIHFTLIQAFCCEN; cysteine pairing not given here; also: fused to GST; UniProt P24522 71-85, looked up, fragment)
pull down of recombinant p38α: pulled down p38α as well as the full length protein
